This is an account of results in patent publication US20090188009A1, “HEAT SHOCK RNA FROM VARIOUS SPECIES AND ITS USE IN ACTIVATION OF HEAT SHOCK TRANSCRIPTION FACTOR, IN TREATMENT OF VARIOUS DISEASES IN ANIMALS AND IN GENERATION OF STRESS-RESISTANT PLANTS” (New York University, published 2009).

The target in data set [1] is purified recombinant mouse HSF1 (heat shock transcription factor 1), released from GST-HSF1 by thrombin cleavage (mouse) (UniProt P38532). Put plainly: cell-based or functional assay.
purified recombinant mouse HSF1 (heat shock transcription factor 1), released from GST-HSF1 by thrombin cleavage (mouse), sequence (P38532 other isoform, or with tags, fused parts or gaps limits assumed): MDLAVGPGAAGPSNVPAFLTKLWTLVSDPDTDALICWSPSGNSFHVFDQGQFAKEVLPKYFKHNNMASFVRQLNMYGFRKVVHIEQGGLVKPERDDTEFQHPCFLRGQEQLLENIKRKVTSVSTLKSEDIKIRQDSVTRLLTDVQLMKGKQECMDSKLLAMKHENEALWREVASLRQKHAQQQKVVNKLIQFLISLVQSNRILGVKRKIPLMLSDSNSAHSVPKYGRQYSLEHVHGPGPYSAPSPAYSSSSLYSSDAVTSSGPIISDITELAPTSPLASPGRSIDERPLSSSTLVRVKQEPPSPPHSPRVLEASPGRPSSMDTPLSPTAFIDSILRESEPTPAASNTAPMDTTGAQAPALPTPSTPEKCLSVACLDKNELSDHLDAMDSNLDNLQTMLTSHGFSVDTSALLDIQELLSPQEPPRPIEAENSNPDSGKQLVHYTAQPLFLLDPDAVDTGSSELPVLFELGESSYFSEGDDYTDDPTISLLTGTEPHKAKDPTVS
The next data set concerns the target HSF1 (Mus musculus, UniProt P38532 P38532:1-525). Kind of data set: EMSA; trimeric HSF1 activated by eEF1A plus HSR1 (BHK, HeLa or T3 sense transcript); about 5% of HSF1 activated; 1.5 mM MgCl2, 2 mM DTT. The note with it: tags: expressed as N-terminal GST fusion from pGex-2T in E. coli, thrombin cleaved; chain copies: 3; label: 32P end. The protocol:
cDNAs of HSR1 were cloned from both HeLa and BHK cells (see Methods), and the coding strand was identified in a functional assay (FIG. 5A). As shown in the upper panel of FIG. 5A, the sense (T3) and antisense (T7) HSR1s were transcribed in vitro by T3 and T7 RNA polymerases, respectively, from PCR fragments carrying T3 or T7 promoters on each side of HSR1. The resulting synthetic RNAs were tested in the minimal HSF1 activating system (FIG. 5A, lower panel). For the reconstitution experiment shown in FIG. 5A, recombinant mouse HSF1 was used along with eEF1A purified from rat liver (as described above). HSR1 isolated from heat-shocked BHK or HeLa cells (lanes 7, 8) and HSR1-T3 (lane 10) activated HSF when added together with purified eEF1A. However, neither component alone was capable of activating HSF1 (lanes 2-6). The slight stimulating effect of isolated eEF1A (lane 2) on HSF1 activation results from the residual amount of co-purified HSR1, and could be eliminated by RNAse A treatment. In FIG. 5A, quantitation of HSF1 activation is presented as the fold increase relative to a background control. Under these conditions, about 5% of the total HSF1 was activated.

HSF1, sequence (P38532 whole entry, the tested form may be a part, one chain of several): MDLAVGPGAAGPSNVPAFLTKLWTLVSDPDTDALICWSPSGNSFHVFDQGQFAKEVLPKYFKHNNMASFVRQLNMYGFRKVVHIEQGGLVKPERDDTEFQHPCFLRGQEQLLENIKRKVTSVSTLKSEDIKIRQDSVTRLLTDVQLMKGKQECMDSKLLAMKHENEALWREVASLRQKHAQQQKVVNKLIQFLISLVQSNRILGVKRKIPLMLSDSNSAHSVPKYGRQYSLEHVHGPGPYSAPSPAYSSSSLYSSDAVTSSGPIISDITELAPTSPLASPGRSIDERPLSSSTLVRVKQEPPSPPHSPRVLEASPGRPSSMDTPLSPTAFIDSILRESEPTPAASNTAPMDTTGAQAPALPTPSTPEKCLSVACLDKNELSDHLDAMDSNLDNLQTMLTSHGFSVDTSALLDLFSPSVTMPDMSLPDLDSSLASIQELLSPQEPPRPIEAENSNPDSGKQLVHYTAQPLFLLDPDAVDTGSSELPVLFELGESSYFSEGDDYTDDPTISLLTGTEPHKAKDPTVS

On to “eEF1A purified from rat liver (from UniProt P62630 2-462)”, for which the HSF1 activation (DNA binding to HSE, EMSA) in the reconstituted system in data set [1] amounted to 5%.

B1: HSE oligonucleotide (dsDNA)
DNA 1: GCCTCGAATGTTCGCGAAGTTTCG
DNA 2: CGAAACTTCGCGAACATTCGAGGC
With B1, the binding result with HSF1 is “binds”.
